Assay results from patent US20250352661A1 (MYTHIC THERAPEUTICS, published 2025).

What was measured:
Test in all cases: cell-based or functional assay
[1] = target: T1, LRRC15 on the surface of LRRC15+ cells (SAOS-2, U87MG) (UniProt Q8TF66 22-581, limits assumed)
T1 sequence (looked up): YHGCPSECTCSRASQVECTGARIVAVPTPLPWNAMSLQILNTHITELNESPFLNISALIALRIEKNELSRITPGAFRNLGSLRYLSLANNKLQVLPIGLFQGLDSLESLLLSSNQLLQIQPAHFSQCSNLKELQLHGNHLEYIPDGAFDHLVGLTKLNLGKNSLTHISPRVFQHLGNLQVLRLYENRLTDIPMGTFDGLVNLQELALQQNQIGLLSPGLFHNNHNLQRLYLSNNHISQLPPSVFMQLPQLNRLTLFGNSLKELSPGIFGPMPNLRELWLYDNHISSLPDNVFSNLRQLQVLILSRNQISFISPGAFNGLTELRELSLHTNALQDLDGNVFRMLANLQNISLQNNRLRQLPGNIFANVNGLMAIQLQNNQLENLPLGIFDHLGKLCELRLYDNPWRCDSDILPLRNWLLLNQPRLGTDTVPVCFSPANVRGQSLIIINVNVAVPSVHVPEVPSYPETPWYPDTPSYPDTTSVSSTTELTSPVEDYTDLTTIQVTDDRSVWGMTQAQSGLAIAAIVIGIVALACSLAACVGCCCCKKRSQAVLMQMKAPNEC

[2] = target: T1, LRRC15 on the surface of LRRC15+ cells …; remark: listed apart in the source
[3] = target: T1, LRRC15 on the surface of LRRC15+ cells …; remark: listed apart in the source
[4] = target: T1, LRRC15 on the surface of LRRC15+ cells …; remark: listed apart in the source

B1: MYT8500 (antibody, V domains shown)
VH: EVQLVESGGGLVQPGGSLRLSCTASGFSFSGSYWICWVRQAPGKGLEWVGCINGGSHDITYYASWAKGRFTISRDTSKNTVYLQKTSLRAEDTAVYYCASDTSYTAYGNFYFNLWGQGTLVTVSS
VL: EIVMTQSPSPLSASVGDRVIITCQSSQSVLNNNWLAWYQQKPGKAPKLLIYDASSLASGVPSRFSGSGSGAEFTLTISSLQPDDFATYYCQGEFSCGSADCNAFGQGTKLTVL
[1]
  Internalization in SAOS-2 cells (10 nM, 24 hours), FOB = fold over background (IgG control): 2.68 fold over background (IgG control)
  Internalization in SAOS-2 cells (10 nM, 24 hours), FOS = fold over samrotamab: 1.03 fold over samrotamab
[2]
  Internalization in U87MG cells (10 nM, 24 hours), FOB = fold over background (IgG control): 2.65 fold over background (IgG control)
  Internalization in U87MG cells (10 nM, 24 hours), FOS = fold over samrotamab: 1.93 fold over samrotamab
[3]
  Cytotoxicity against SAOS-2 cells, Fold over MYT5438 (mAb complexed with MMAF-conjugated secondary antibody, CTG assay): 1.06 fold over MYT5438

B2: MYT8094 (antibody, IgG1, V domains shown)
VH: EVQLVESGGGLVQPGGSLRLSCTASGFSFSSSHWICWVRQAPGKGLEWVGCIYAGSIGSTYYASWAKGRFTISRDTSKNTVYLQMNSLRAEDTAVYYCARAPNDIYNYYFNLWGQGTLVTVSS
VL: EIVMTQSPSTLSASVGDRVIITCQASENIYNYLAWYQQKPGKAPKLLIYYASTLASGVPSRFSGSGSGAEFTLTISSLQPDDFATYYCQSGYVSKSSTFGQGTKLTVL
[1]
  Internalization in SAOS-2 cells (10 nM, 24 hours), FOB = fold over background (IgG control): 3.15 fold over background (IgG control)
  Internalization in SAOS-2 cells (10 nM, 24 hours), FOS = fold over samrotamab: 1.32 fold over samrotamab
[2]
  Internalization in U87MG cells (10 nM, 24 hours), FOB = fold over background (IgG control): 3.52 fold over background (IgG control)
  Internalization in U87MG cells (10 nM, 24 hours), FOS = fold over samrotamab: 2.94 fold over samrotamab
[3]
  Cytotoxicity against SAOS-2 cells, Fold over MYT5438 (mAb complexed with MMAF-conjugated secondary antibody, CTG assay): 1.45 fold over MYT5438

B3: MYT9731 (antibody, V domains shown)
VH: EVQLVESGGGLVQPGGSLRLSCTASGFSFSSSHWICWVRQAPGKGLEWVGCIYAGSIGSTYYASWAKGRFTISRDTSKNTVYLQMNSLRAEDTAVYYCARAPNDIYNYYFNLWGQGTLVTVSS
VL: EIVMTQSPSTLSASVGDRVIITCQASEEIYNYLAWYQQKPGKAPKLLIYYASTLASGVPSRFSGSGSGAEFTLTISSLQPDDFATYYCQSGYVSKSSTFGQGTKLTVL
[3]
  Cytotoxicity against SAOS-2 cells, Fold over MYT5438 (mAb complexed with MMAF-conjugated secondary antibody, CTG assay): 1.05 fold over MYT5438

B4: MYT2737-c-ADC (antibody, human IgG1, kappa, V domains shown)
VH: EVQLVQSGAEVKKPGASVKVSCKASGYKFSSYWIEWVKQAPGQGLEWIGEILPGSDTTNYNEKFKDRATFTSDTSINTAYMELSRLRSDDTAVYYCARDRGNYRAWFGYWGQGTLVTVSS
VL: DIQMTQSPSSLSASVGDRVTITCRASQDISNYLNWYQQKPGGAVKFLIYHTSRLHSGVPSRFSGSGSGTDYTLTISSLQPEDFATYFCQQGEALPWTFGGGTKVEIKR
modifications: vcMMAE conjugated to the cysteine at position 205 of the light chain
[4]
  20 nM Efficacy (cytotoxicity of candidates against SAOS-2 cells): 20.2

B5: MYT3315-c-ADC (antibody, human IgG1, kappa, V domains shown)
VH: EVQLVESGGGLVQPGGSLRLSCAVSGFSLTSYGVHWVRQATGKGLEWLGVIWAGGSTNYNSALMSRLTISKENAKSSVYLQMNSLRAGDTAMYYCATHMITEDYYGMDYWGQGTTVTVSS
VL: DIVMTQSPDSLAVSLGERATINCKSSQSLLNSRTRKNYLAWYQQKPGQSPKLLIYWASTRHSGVPDRFSGSGSGTDFTLTISSLQAEDVAVYYCKQSYNLPTFGGGTKVEIKR
modifications: vcMMAE conjugated to the cysteine at position 205 of the light chain
[4]
  20 nM Efficacy (cytotoxicity of candidates against SAOS-2 cells): 22

B6: MYT8391-c-ADC (antibody, human IgG1, kappa, V domains shown)
VH: EVQLVESGGGLVQPGGSLRLSCTASGLDFRRTNYICWVRQAPGKGLEWVGCIYIADVVHYYASWAKGRFTFSRDTSKNTVYLQMNSLRAEDTAVYYCARGADGGFHYGMDLWGQGTLVTVSS
VL: EIVMTQSPSTLSASVGDRVIITCQASQSIGNYLSWYQQKPGKAPKRLIYSASTLPSGVPSRFSGSGSGAEFTLTISSLQPDDFATYYCQNNYWLAGYGHPFGQGTKLTVLR
modifications: vcMMAE conjugated to the cysteine at position 205 of the light chain
[4]
  20 nM Efficacy (cytotoxicity of candidates against SAOS-2 cells): 63.8

B7: MYT8415-c-ADC (antibody, human IgG1, kappa, V domains shown)
VH: EVQLVESGGGLVQPGGSLRLSCTASGLDFRRTNYICWVRQAPGKGLEWVGCIYIADVVHYYASWAKGRFTFSRDTSKNTVYLQMNSLRAEDTAVYYCARGADGGFVYGMDLWGQGTLVTVSS
VL: EIVMTQSPSTLSASVGDRVIITCQASQSIGNYLSWYQQKPGKAPKRLIYSASTLPSGVPSRFSGSGSGAEFTLTISSLQPDDFATYYCQNNHWLAGYGHPFGQGTKLTVLR
modifications: vcMMAE conjugated to the cysteine at position 205 of the light chain
[4]
  20 nM Efficacy (cytotoxicity of candidates against SAOS-2 cells): 38.7

B8: MYT8417-c-ADC (antibody, human IgG1, kappa, V domains shown)
VH: EVQLVESGGGLVQPGGSLRLSCTASGLDFRRTNYICWVRQAPGKGLEWVGCIYIADVVHYYASWAKGRFTFSRDTSKNTVYLQMNSLRAEDTAVYYCARGADGGFVYGMDLWGQGTLVTVSS
VL: EIVMTQSPSTLSASVGDRVIITCQASQSIGNYLSWYQQKPGKAPKRLIYSASTLPSGVPSRFSGSGSGAEFTLTISSLQPDDFATYYCQNNYWLAHYGHPFGQGTKLTVLR
modifications: vcMMAE conjugated to the cysteine at position 205 of the light chain
[4]
  20 nM Efficacy (cytotoxicity of candidates against SAOS-2 cells): 42.5
